Experimental data published in the supplement of paper PMC9732359.
± gives the uncertainty stated by the source.

Test: protein stability index of a GFP-peptide fusion (yeast GPS) (PSI 1-4); higher = more stable; sorted into four equal gates, so the index is relative within each strain
Summary of the method: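 Each library plasmid carries Cherry plus GFP with a tiled 17-residue yeast protein peptide fused downstream, and the pooled library was carried in yeast. Mid-log cultures in leucine-free medium were sorted into four equal gates by GFP/Cherry ratio. Reads from Illumina sequencing of PCR-amplified plasmids from each gate were assigned to strains by barcodes. Per peptide, the protein stability index was computed as the summed products of gate read frequency and gate number.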

Sequence	protein stability index (doa10∆)	protein stability index (pdr5∆)	protein stability index (san1∆)	protein stability index (ubr1∆)
ARYVIATSTKVSVEGVN [RPL6A]	1.62 ± 0.051	1.52 ± 0.048	1.47 ± 0.11	1.27 ± 0.034
PPQLANQQQPPQDILSK [SNF11]	2.26 ± 0.055	2.87 ± 0.069	2.41 ± 0.065	2.69 ± 0.052
LTNGVTEHVRQNAKLLA [RRP6]	1.6 ± 0.041	1.88 ± 0.073	1.99 ± 0.23	1.59 ± 0.069
KVFDCGDNIVMSANGFA [PRE7]	2.88 ± 0.24	2.92 ± 0.12	2.88 ± 0.11	2.97 ± 0.15
IKVEGAVGNLGNAVTVT [RPL22A]	3.39 ± 0.14	3.18 ± 0.13	3.15 ± 0.083	3.06 ± 0.079
VKRYRLAPTQLSAEYLV [SIN4]	2.44 ± 0.062	2.23 ± 0.056	2.3 ± 0.067	2.71 ± 0.043
RIKITANNNMNDELVEL [GRR1]	2.35 ± 0.051	2.41 ± 0.053	2.33 ± 0.062	2.71 ± 0.041
SDGQSRVKDIHLRKLLD [RET1]	2.88 ± 0.061	2.98 ± 0.067	3.11 ± 0.068	2.99 ± 0.043
YFKLDLTSDLVYFGDEN [RRI2]	2.09 ± 0.15	2.47 ± 0.3	–	1.48 ± 0.08
PISKHSKQAIYTRAAAS [RPS25B]	2.64 ± 0.067	2.63 ± 0.054	2.43 ± 0.061	2.83 ± 0.051
AVSVANGFMHAGTTDNS [RPN2]	1.25 ± 0.062	1.4 ± 0.051	1.17 ± 0.24	1.28 ± 0.067
EDLHEKNDSAEVRQETQ [NUT1]	3.48 ± 0.1	3.28 ± 0.2	3.13 ± 0.083	3.53 ± 0.075
KRSQKKHKKKHLKHENA [RPB4]	3.03 ± 0.044	2.96 ± 0.052	3.09 ± 0.037	3.25 ± 0.043
VLSSVREPDFWVIRKQR [MED6]	3.52 ± 0.12	3.44 ± 0.1	3.54 ± 0.12	3.11 ± 0.12
RGRPPKARNGLDYVRTP [SNF2]	1.52 ± 0.096	1.67 ± 0.087	2.41 ± 0.13	3.09 ± 0.074
EVQCTSTPYLEILVEES [PCI8]	2.3 ± 0.067	2.96 ± 0.18	2.33 ± 0.14	2.64 ± 0.083
NPDDLMKAVRKVAEVKK [RPT4]	–	3.4 ± 0.25	–	–
IASMSTVRASSLQDLIY [SMC2]	1.92 ± 0.069	2.33 ± 0.1	2.53 ± 0.092	2.25 ± 0.037
NKLVMKSKFNKSNRSYS [GAL11]	2.92 ± 0.059	2.99 ± 0.099	3.01 ± 0.064	3.01 ± 0.053
KAKYNTPKYRLVVRFTN [RPL5]	1.39 ± 0.049	1.53 ± 0.073	1.24 ± 0.21	1.12 ± 0.068
FEGNALIRRLVRVGVLS [RPS9A]	2.44 ± 0.1	2.52 ± 0.18	–	1.15 ± 0.17
KGGEQISQLYSDAVMAE [YJL041W/NSP1]	2.25 ± 0.12	2.01 ± 0.12	2.19 ± 0.14	2.33 ± 0.13
ASLKHDNETKAMLINLI [RPN3]	2.85 ± 0.28	3.21 ± 0.27	2.8 ± 0.13	2.77 ± 0.29
AGMTTIVRDLDRPGSKF [RPL3]	2.39 ± 0.11	3.24 ± 0.18	2.95 ± 0.08	3.15 ± 0.11
DHLIIEPEEEKSKREEE [ARP9]	3.15 ± 0.27	–	–	3.2 ± 0.17
MKTKTINAQGEEIVVVA [PRP8]	1.72 ± 0.089	1.92 ± 0.12	1.36 ± 0.19	1.52 ± 0.06
STIEKDMKEYDSDKGSK [SMC2]	3.25 ± 0.1	3.44 ± 0.071	3.37 ± 0.056	3.44 ± 0.075

Sequence	protein stability index (doa10∆)	protein stability index (pdr5∆)	protein stability index (san1∆)	protein stability index (ubr1∆)
KQDEKKSSELELQKLVH [SMC2]	3.23 ± 0.13	3.5 ± 0.097	3.4 ± 0.071	3.35 ± 0.051
TSVENEGPVANLKDYEL [REC8]	3.38 ± 0.11	3.41 ± 0.12	3.03 ± 0.13	3.16 ± 0.076
HGSISPQEESVSPNISS [SIR3]	2.82 ± 0.075	3.06 ± 0.07	2.98 ± 0.046	3.01 ± 0.034
EQKKTATEVTPQEPKHI [RPC19]	2.45 ± 0.054	3.02 ± 0.054	2.6 ± 0.072	2.54 ± 0.04
VTEETTKQIQSVRIDGR [SIR4]	2.31 ± 0.086	3.06 ± 0.077	2.83 ± 0.066	2.12 ± 0.074
KQRFQGCNNLIKNISNR [ARP9]	2.89 ± 0.07	2.88 ± 0.048	3.26 ± 0.063	3.03 ± 0.048
KKHTKKFKRHHSDRYHR [RPL32]	2.88 ± 0.038	2.99 ± 0.034	2.87 ± 0.029	2.971 ± 0.025
HKDSFYDRATLTQLLSM [RPO31]	1.79 ± 0.066	2.09 ± 0.062	2.09 ± 0.071	1.35 ± 0.04
PVNSADGKEDVEKGTPL [SME1]	3.45 ± 0.12	3.25 ± 0.21	3.52 ± 0.058	–
IGTINSIVHINSQERVQ [SIR2]	2.13 ± 0.037	2.16 ± 0.034	2.12 ± 0.05	1.95 ± 0.026
VNKVPQNVAGDKTAVKL [SWP82]	2.71 ± 0.16	3.04 ± 0.11	2.8 ± 0.096	3.07 ± 0.071
TTDNNNSGNSNSNSNQQ [RPT1]	3.3 ± 0.12	2.93 ± 0.14	2.59 ± 0.23	3.36 ± 0.2
GKSEKLSLLLVEDKIPL [SKI6]	2.45 ± 0.11	2.79 ± 0.095	3.23 ± 0.056	3.27 ± 0.12
GISRDIKALQDSLFKDV [YML103C/NUP188]	2.19 ± 0.077	1.99 ± 0.063	2.07 ± 0.089	1.77 ± 0.042
IRDSGDRIDLRYSKRAG [RPO21]	3.43 ± 0.18	3.34 ± 0.23	3.25 ± 0.12	3.27 ± 0.19
KNNNNANNNGSNLQRAQ [GAL11]	3.38 ± 0.13	–	3.28 ± 0.14	3.02 ± 0.11
RGFFDILSLATEGCIGL [MCD1]	2.87 ± 0.1	3.03 ± 0.057	2.52 ± 0.092	2.7 ± 0.063
LRVDEVQGKNLLTNFHG [RPS1A]	3.29 ± 0.067	3.42 ± 0.055	3.3 ± 0.047	3.26 ± 0.041
AAPAATSAASGDAAPAE [RPP0]	2.6 ± 0.091	2.38 ± 0.049	1.6 ± 0.1	2.42 ± 0.063
AQSVGCRVDFKNPHDII [RPL12A]	2.15 ± 0.061	2.4 ± 0.078	2.23 ± 0.12	2.32 ± 0.1
LRLDGHTKSDERSELLR [SNF2]	3.24 ± 0.081	3.18 ± 0.084	3.38 ± 0.079	3.33 ± 0.078
DDDDDEDEEEEEEVTDQ [QCR6]	3.02 ± 0.061	3.73 ± 0.22	3.4 ± 0.047	3.4 ± 0.12
PVQSKFGRKKRKGGPAT [RPT2]	3.47 ± 0.23	3.11 ± 0.14	2.99 ± 0.095	3.22 ± 0.16
VSDSNDDVRRAAVIALG [RPN2]	3.26 ± 0.1	3.26 ± 0.13	2.7 ± 0.17	3.42 ± 0.14
PSLRKLIESGIGTHHAG [BRR2]	3.16 ± 0.19	3.38 ± 0.28	3.11 ± 0.2	3.64 ± 0.13
FKYVEDRFPLKLREPVA [ITC1]	2.42 ± 0.094	–	1.81 ± 0.26	2.73 ± 0.093
PSYTHVLISKLSCEKIT [RRI1]	2.18 ± 0.04	1.99 ± 0.043	2.12 ± 0.047	1.98 ± 0.035
